According to publication PMC3796546:

Columns and labels:
Assay in all cases: co-IP with mass spectrometry
[1] = target: ADO1; conditions: cross-linked in vivo with formaldehyde, p value 0.02371
[2] = target: HOM2; conditions: cross-linked in vivo with formaldehyde, p value 0.02371
[3] = target: REP1; conditions: cross-linked in vivo with formaldehyde, p value 0.25926
[4] = target: HHF1; conditions: cross-linked in vivo with formaldehyde, p value 0.08671
[5] = target: TY1B-BR; conditions: cross-linked in vivo with formaldehyde, p value 0.09425
[6] = target: SUP35; conditions: cross-linked in vivo with formaldehyde, p value 0.08282
[7] = target: RPL13A/B; conditions: cross-linked in vivo with formaldehyde, p value 0.05060
[8] = target: RPL36A; conditions: cross-linked in vivo with formaldehyde, p value 0.13485
[9] = target: ENO1; conditions: cross-linked in vivo with formaldehyde, p value 0.14901
[10] = target: TY1B-ER1; conditions: cross-linked in vivo with formaldehyde, p value 0.21132
[11] = target: PFK2; conditions: cross-linked in vivo with formaldehyde, p value 0.14162
[12] = target: ARF2; conditions: cross-linked in vivo with formaldehyde, p value 0.05060

ratio to parent [1]: 5
other: sum ([1]; parent: 1): 5
ratio to parent [2]: 2
other: sum ([2]; parent: 4): 8
ratio to parent [3]: 2
other: sum ([3]; parent: 2): 4
ratio to parent [4]: 2
other: sum ([4]; parent: 4): 8
ratio to parent [5]: > 9
other: sum ([5]; parent: 0): 9
ratio to parent [6]: 2.14
other: sum ([6]; parent: 7): 15
ratio to parent [7]: 2.2
other: sum ([7]; parent: 5): 11
ratio to parent [8]: > 4
other: sum ([8]; parent: 0): 4
ratio to parent [9]: 3.5
other: sum ([9]; parent: 2): 7
ratio to parent [10]: > 6
other: sum ([10]; parent: 0): 6
ratio to parent [11]: 6
other: sum ([11]; parent: 1): 6
ratio to parent [12]: 2.5
other: sum ([12]; parent: 2): 5
Substance: N-terminal 3xHA-tagged wild-type Irc20 (from UniProt Q06554) C1239A
